# From paper PMC6018217, “3-Hydroxyphthalic Anhydride- Modified Rabbit Anti-PAP IgG as a Potential Bifunctional HIV-1 Entry Inhibitor” (Frontiers in Microbiology, 2018)
# B1: Peptide PAP248-286 (amino acid residues 248-286 of prostatic acidic phosphatase) (peptide, UniProt P15309 248-286, looked up)
# peptide: GIHKQKEKSRLQGGVLVNEILNHMKRATQIPSYKKLIMY
# notes: Forms SEVI amyloid fibrils when agitated at 3 mg/ml in PBS, 37°C; also called SEVI; SEVI fibrils; source: synthetic peptide (Fmoc solid phase, GL Biochem, HPLC purified)
# Molecular target: the molecule itself
# Assay: amyloid fibril formation (ThT fluorescence, Congo red, TEM, CD); PAP248-286 alone at 3 mg/ml in PBS, agitated at 1,400 rpm, 37°C, 0-48 h; fibrils read by ThT fluorescence, Congo red staining, negative-stain TEM and CD
protein,measurement,value
B1,binding result,binds
